Here are results for 6 molecules from US20120316071A1 (published 2012).

In general, Kd refers to the concentration at which binding is half-saturated. What is called kon is a measure of how fast the partners come together. What is called koff is the first-order rate constant of dissociation.

In assay [1] the target is T1, Recombinant Human DLL4 (delta-like protein 4) (human, UniProt Q9NR61 27-524).
T1 construct: Bought recombinant protein (R&D Systems Cat#1506-D4/CF); also called rHuman DLL4
The assay can be described thus: ELISA, DLL4 coated on plate.

Assay [2] has as its target T2, rHuman Notch-1/Fc Chimera (human, UniProt P46531 19-526).
T2 construct: R&D Systems Cat#3647-TK; not shown: Fc of the bought R&D Systems chimera
The assay can be described thus: ECL (MSD) multispot assay, antigen spotted; blank spot of this row 424.

Assay [3] concerns the target T3, rHuman CD44/Fc Chimera (human, UniProt P16070 21-220).
T3 construct: not shown: Fc of the bought R&D Systems chimera
The description is as above.

Assay [4] addresses T4, rHuman P-Cadherin/Fc Chimera (human, UniProt P22223 108-654).
T4 construct: R&D Systems Cat#861-PC; not shown: Fc of the bought R&D Systems chimera
The assay is described as above.

For assay [5], the target named is T5, rHuman Erythropoietin R/Fc Chimera (human, UniProt P19235 25-250).
T5 construct: also called EPO R; EPO R/Fc; not shown: Fc of the bought R&D Systems chimera
T5 sequence (looked up): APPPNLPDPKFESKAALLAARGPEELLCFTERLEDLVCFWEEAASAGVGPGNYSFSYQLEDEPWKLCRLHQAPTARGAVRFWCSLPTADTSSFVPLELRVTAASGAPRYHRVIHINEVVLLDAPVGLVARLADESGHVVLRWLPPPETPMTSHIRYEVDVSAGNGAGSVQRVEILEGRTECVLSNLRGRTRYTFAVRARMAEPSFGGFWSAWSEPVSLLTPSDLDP
The description is as above.

For assay [6], the target named is T1, Recombinant Human DLL4 (delta-like …). The assay is described as above.
Assay [7] concerns the target T6, rHuman ErbB2/Fc Chimera (human, UniProt P04626 23-652).
T6 construct: not shown: Fc of the bought R&D Systems chimera
Described as above.

Assay [8] deals with T7, rHuman EGF R/Fc Chimera (human, UniProt P00533 25-645).
T7 construct: not shown: Fc of the bought R&D Systems chimera
Described as above.

Assay [9] deals with T1, Recombinant Human DLL4 (delta-like …). Put plainly: ECL (MSD) multispot binding assay; value equals DLL4 signal over blank of Table 91.
In assay [10] the target is T8, Recombinant Human DLL4 (delta-like protein 4) (human, UniProt Q9NR61 27-524).
T8 construct: Bought recombinant protein; also called rHuman DLL4; Delta-like 4
Put plainly: SPR, Fab on recombinant human DLL4; (±7) at r11c5. A general note: In SPR one partner is held on a chip, and binding of the other changes the refractive index at the surface.

The target of assay [11] is T8, Recombinant Human DLL4 (delta-like …). Put plainly: SPR, Fab on recombinant human DLL4; column head x10^5 applied; (±0.092) at r11c3.
The target is the same in assay [12]. Put plainly: SPR, Fab on recombinant human DLL4; column head x10^-3 applied as printed, but KD x ka implies 0.023 s^-1 unscaled; (±0.004) at r11c4.
The target of assay [13] is T9, rHuman ErbB2/Fc Chimera, CF (R&D Systems Cat#1129-ER) (human, UniProt P04626 23-652).
T9 construct: Bought recombinant protein; also called human epidermal growth factor 2 receptor; Fc part of the bought chimera not given
Put plainly: ECL multispot (MSD) binding assay, antigen spotted on plate, Fab 0.04 uM.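 Also: purified Fab incubated 1 h at 20 °C on antigen spots, detected via TAG-labelled antibody, ECL read against each well's blank, with signal-to-blank of at least 4 scored as binder.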

Assay [14] has as its target T10, rHuman EGF R/Fc Chimera, CF (R&D Systems Cat#344-ER) (human, UniProt P00533 25-645).
T10 construct: Bought recombinant protein; also called epidermal growth factor receptor; Fc part of the bought chimera not given
Described as above.

Assay [15] addresses T11, rHuman HGF R/c-MET/Fc Chimera, CF (R&D Systems Cat#358-MT/CF) (human, UniProt P08581 25-932).
T11 construct: Bought recombinant protein; also called HGF R/Fc; hepatocyte growth factor receptor; Fc part of the bought chimera not given
Described as above.

Assay [16] concerns the target T12, rHuman Notch-1/Fc Chimera, CF (R&D Systems Cat#3647-TK) (human, UniProt P46531 19-526).
T12 construct: Bought recombinant protein; Fc part of the bought chimera not given
Described as above.

For assay [17], the target named is T13, rHuman CD44/Fc Chimera, CF (R&D Systems Cat#3660-CD) (human, UniProt P16070 21-220).
T13 construct: Bought recombinant protein; Fc part of the bought chimera not given
The assay is described as above.

For assay [18], the target named is T14, rHuman IGF-1 sR, CF (R&D Systems Cat#391-GR) (human, UniProt P08069 31-932).
T14 construct: Bought recombinant soluble receptor; also called insulin-like growth factor-1 soluble receptor
The assay is described as above.

Assay [19] deals with T15, rHuman P-Cadherin/Fc Chimera, CF (R&D Systems Cat#861-PC) (human, UniProt P22223 108-654).
T15 construct: Bought recombinant protein; Fc part of the bought chimera not given
The description is as above.

Assay [20] addresses T16, rHuman Erythropoietin R/Fc Chimera, CF (R&D Systems Cat#963-ER) (human, UniProt P19235 25-250).
T16 construct: Bought recombinant protein; also called EPO R; EPO R/Fc; Fc part of the bought chimera not given
T16 sequence (looked up): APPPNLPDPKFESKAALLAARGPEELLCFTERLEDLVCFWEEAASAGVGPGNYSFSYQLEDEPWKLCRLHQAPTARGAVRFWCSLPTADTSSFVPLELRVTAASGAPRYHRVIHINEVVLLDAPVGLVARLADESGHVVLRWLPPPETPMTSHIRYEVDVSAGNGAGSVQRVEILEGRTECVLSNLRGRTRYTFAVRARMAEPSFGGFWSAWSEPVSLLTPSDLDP
Described as above.

In assay [21] the target is T17, Recombinant Human DLL4 (R&D Systems Cat#1506-D4/CF) (human, UniProt Q9NR61 27-524).
T17 construct: Bought recombinant protein; also called delta-like protein 4; rHuman DLL4
The assay is described as above.

Assay [22] addresses T2, rHuman Notch-1/Fc Chimera. The assay can be described thus: ECL (MSD) multispot assay, antigen spotted; blank spot of this row 284.
Assay [23] deals with T3, rHuman CD44/Fc Chimera. The assay is described as above.
For assay [24], the target named is T4, rHuman P-Cadherin/Fc Chimera. The assay is described as above.
Assay [25] has as its target T1, Recombinant Human DLL4 (delta-like …). The description is as above.
Assay [26] has as its target T6, rHuman ErbB2/Fc Chimera. The description is as above.
In assay [27] the target is T7, rHuman EGF R/Fc Chimera. Described as above.
Assay [28] addresses T18, Recombinant Human DLL4 (delta-like protein 4) (human, UniProt Q9NR61 27-524).
T18 construct: also called rHuman DLL4; Delta-like 4
The assay can be described thus: ELISA, Fab on plate-coated recombinant human DLL4. In general terms: ELISA stands for enzyme-linked immunosorbent assay.

The target of assay [29] is T18, Recombinant Human DLL4 (delta-like …). Put plainly: ECL (MSD) binding assay, Fab on immobilised recombinant human DLL4.
The target in assay [30] is T8, Recombinant Human DLL4 (delta-like …). Put plainly: SPR, Fab on recombinant human DLL4; (±200) printed at r9c5; ka and kd printed n/a.

T11 sequence (P08581 25-932, change not shown): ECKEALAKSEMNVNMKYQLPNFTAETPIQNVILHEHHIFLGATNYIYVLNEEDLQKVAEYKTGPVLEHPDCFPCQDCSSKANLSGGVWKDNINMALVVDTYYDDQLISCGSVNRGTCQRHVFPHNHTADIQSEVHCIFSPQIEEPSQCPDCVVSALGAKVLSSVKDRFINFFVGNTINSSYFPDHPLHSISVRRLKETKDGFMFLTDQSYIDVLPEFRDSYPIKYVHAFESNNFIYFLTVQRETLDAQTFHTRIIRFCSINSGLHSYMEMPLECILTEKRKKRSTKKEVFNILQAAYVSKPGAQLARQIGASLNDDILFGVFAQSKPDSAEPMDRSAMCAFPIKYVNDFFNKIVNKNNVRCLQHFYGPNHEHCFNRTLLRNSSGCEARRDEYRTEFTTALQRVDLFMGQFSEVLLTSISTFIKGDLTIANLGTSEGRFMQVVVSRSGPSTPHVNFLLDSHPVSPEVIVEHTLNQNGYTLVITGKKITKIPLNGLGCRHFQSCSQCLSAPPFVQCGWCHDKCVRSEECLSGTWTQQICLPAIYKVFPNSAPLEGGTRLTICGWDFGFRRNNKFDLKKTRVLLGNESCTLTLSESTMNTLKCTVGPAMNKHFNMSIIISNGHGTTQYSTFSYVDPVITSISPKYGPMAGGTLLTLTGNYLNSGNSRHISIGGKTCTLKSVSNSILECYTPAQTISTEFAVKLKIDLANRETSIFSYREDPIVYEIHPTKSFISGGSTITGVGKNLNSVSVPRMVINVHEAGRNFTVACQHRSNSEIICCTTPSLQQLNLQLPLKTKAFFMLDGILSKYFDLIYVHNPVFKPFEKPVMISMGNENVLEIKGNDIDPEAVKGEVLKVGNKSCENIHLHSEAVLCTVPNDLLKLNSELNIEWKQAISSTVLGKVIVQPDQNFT

B1: Fab VH5-51_IGHD5-18*01>3_IGHJ4*01 G100K/G104T & V3-4_IGLJ1*01 (Fab, V domains shown)
VH: EVQLVQSGAEVKKPGESLKISCKGSGYSFTSYWIGWVRQMPGKGLEWMGIIYPGDSDTRYSPSFQGQVTISADKSISTAYLQWSSLKASDTAMYYCARRKYSYTYDYFDYWGQGTLVTVSS
VL: QTVVTQEPSFSVSPGGTVTLTCGLSSGSVSTSYYPSWYQQTPGQAPRTLIYSTNTRSSGVPDRFSGSILGNKAALTITGAQADDESDYYCVLYMGSGISYVFGTGTKVTVL
notes: Fab made in E. coli (heavy chain vector with CH1, His6 and Flag tags; lambda CL vector); also called KT; H:KT
As for B1, in assay [1], the “ELISA (Signal-Noise)” value is 0. Moreover, the ECL signal stood at 543 in [2]; 579 in the assay with rHuman CD44/Fc Chimera [3]; 319 in [4]; 554 in [5]; 36400 in assay [6]; 1100 with rHuman ErbB2/Fc Chimera [7]. This molecule also displayed an ECL signal in the assay with rHuman EGF R/Fc Chimera [8] of 852. The ECL signal-to-blank ratio in assay [9] was 85.9.

B2: Fab VH5-51_IGHD5-18*01>3_IGHJ4*01 G100K/G104T & V3-4_IGLJ1*01 (Fab, V domains shown)
VH: EVQLVQSGAEVKKPGESLKISCKGSGYSFTSYWIGWVRQMPGKGLEWMGIIYPGDSDTRYSPSFQGQVTISADKSISTAYLQWSSLKASDTAMYYCARRKYSYTYDYFDYWGQGTLVTVSS
VL: QTVVTQEPSFSVSPGGTVTLTCGLSSGSVSTSYYPSWYQQTPGQAPRTLIYSTNTRSSGVPDRFSGSILGNKAALTITGAQADDESDYYCVLYMGSGISYVFGTGTKVTVL
notes: Fab made in E. coli; VH was cloned in Plasmid A (CH1, His6 and Flag tags) and VL in Plasmid E (lambda CL); also called KT; H:KT & L:wt
As for B2, the Kd in [10] is 355 nM. Further, in assay [11], the kon came out at 64500 M⁻¹ s⁻¹. Further, in assay [12], the koff was found to be 2.3e-05 s⁻¹.

B3: Fab VH5-51_IGHD5-18*01>3_IGHJ4*01 G100K/G104T (H:KT) & V3-4_IGLJ1*01 I98A (Fab, V domains shown)
VH: EVQLVQSGAEVKKPGESLKISCKGSGYSFTSYWIGWVRQMPGKGLEWMGIIYPGDSDTRYSPSFQGQVTISADKSISTAYLQWSSLKASDTAMYYCARRKYSYTYDYFDYWGQGTLVTVSS
VL: QTVVTQEPSFSVSPGGTVTLTCGLSSGSVSTSYYPSWYQQTPGQAPRTLIYSTNTRSSGVPDRFSGSILGNKAALTITGAQADDESDYYCVLYMGSGASYVFGTGTKVTVL
notes: Fab; Expressed from Plasmid A (CH1, His6 and Flag tags) and Plasmid E (lambda CL); also called KT & I98A
Turning to B3, the ECL signal in assay [13] worked out at 1380; in assay [14], 1050; in assay [15] it was 1230; in assay [16], 700; in assay [17], 708; in assay [18], 1100. Moreover, the figures for the ECL signal in assay [19], in [20] and in [21] were 359, 584 and 15100, respectively.

B4: Fab VH5-51_IGHD5-18*01>3_IGHJ4*01 G100K/G104T D109A & V3-4_IGLJ1*01 (Fab, V domains shown)
VH: EVQLVQSGAEVKKPGESLKISCKGSGYSFTSYWIGWVRQMPGKGLEWMGIIYPGDSDTRYSPSFQGQVTISADKSISTAYLQWSSLKASDTAMYYCARRKYSYTYDYFAYWGQGTLVTVSS
VL: QTVVTQEPSFSVSPGGTVTLTCGLSSGSVSTSYYPSWYQQTPGQAPRTLIYSTNTRSSGVPDRFSGSILGNKAALTITGAQADDESDYYCVLYMGSGISYVFGTGTKVTVL
notes: Fab made in E. coli (heavy chain vector with CH1, His6 and Flag tags; lambda CL vector)
With B4, the “ELISA (Signal-Noise)” value in [1] was 0. Also, the ECL signal was 443 in [22]; 538 in the assay with rHuman CD44/Fc Chimera [23]; 406 in assay [24]; 21800 in assay [25]; 1100 in the assay with rHuman ErbB2/Fc Chimera [26]; 791 with rHuman EGF R/Fc Chimera [27]. In addition, the ECL signal-to-blank ratio in assay [9] was 76.8.

B5: Fab VH5-51_IGHD5-18*01>3_IGHJ4*01 G100K/G104T (H:KT) & V3-4_IGLJ1*01 G23R (Fab, V domains shown)
VH: EVQLVQSGAEVKKPGESLKISCKGSGYSFTSYWIGWVRQMPGKGLEWMGIIYPGDSDTRYSPSFQGQVTISADKSISTAYLQWSSLKASDTAMYYCARRKYSYTYDYFDYWGQGTLVTVSS
VL: QTVVTQEPSFSVSPGGTVTLTCRLSSGSVSTSYYPSWYQQTPGQAPRTLIYSTNTRSSGVPDRFSGSILGNKAALTITGAQADDESDYYCVLYMGSGISYVFGTGTKVTVL
notes: Fab (CH1 with His6/Flag tags from Plasmid A, lambda CL from Plasmid E); also called G100K/G104T & G23R
With B5, in assay [28], the “ELISA signal” value was 0.11. For the same molecule, the “ECL signal” value in assay [29] amounted to 68200.

B6: Fab VH5-51_IGHD5-18*01>3_IGHJ4*01 & V3-4_IGLJ1*01 (Fab, V domains shown)
VH: EVQLVQSGAEVKKPGESLKISCKGSGYSFTSYWIGWVRQMPGKGLEWMGIIYPGDSDTRYSPSFQGQVTISADKSISTAYLQWSSLKASDTAMYYCARRGYSYGYDYFDYWGQGTLVTVSS
VL: QTVVTQEPSFSVSPGGTVTLTCGLSSGSVSTSYYPSWYQQTPGQAPRTLIYSTNTRSSGVPDRFSGSILGNKAALTITGAQADDESDYYCVLYMGSGISYVFGTGTKVTVL
notes: Germline Fab made in E. coli; also called parental; wildtype
B6: the Kd in assay [30] came to 4800 nM.
